The record followed here is patent US12091446 (NATIONAL TECHNOLOGY AND ENGINEERING SOLUTIONS OF SANDIA, dated 2024).

Read-outs that look alike come from different tables or passages of the source.

Assay [1] addresses T1, SARS-COV-2 Wuhan (WT) RBD (SARS-COV-2, UniProt P0DTC2 319-541).
The target in assay [2] is T2, SARS-COV-2 Delta RBD (SARS-COV-2, UniProt P0DTC2 319-541).
The target in assay [3] is T3, SARS-COV-2 spike, Beta variant (B.1.351) (SARS-COV-2, UniProt P0DTC2 14-1273). In words: cell-based or functional assay.
Assay [4] addresses T4, SARS-COV-2 spike, Gamma variant (P.1) (SARS-COV-2, UniProt P0DTC2 14-1273). In words: cell-based or functional assay.
The target of assay [5] is T5, SARS-COV-2 spike, Delta variant (B.1.617.2) (SARS-COV-2, UniProt P0DTC2 14-1273). Put plainly: cell-based or functional assay.
In assay [6] the target is T6, SARS-COV-2 spike, Lambda variant (C.37) (SARS-COV-2, UniProt P0DTC2 14-1273). Put plainly: cell-based or functional assay.
For assay [7], the target named is T7, SARS-COV-2 spike, Mu variant (B.1.621) (SARS-COV-2, UniProt P0DTC2 14-1273). Put plainly: cell-based or functional assay.
For assay [8], the target named is T3, SARS-COV-2 spike, Beta variant (B.1.351). Put plainly: cell-based or functional assay. This is another data set of the same source.
In assay [9] the target is T4, SARS-COV-2 spike, Gamma variant (P.1). In words: cell-based or functional assay. This is another data set of the same source.
The target in assay [10] is T5, SARS-COV-2 spike, Delta variant …. Put plainly: cell-based or functional assay. The source holds these as a separate data set.
The target in assay [11] is T6, SARS-COV-2 spike, Lambda variant (C.37). Put plainly: cell-based or functional assay. The source holds these as a separate data set.
Assay [12] deals with T7, SARS-COV-2 spike, Mu variant (B.1.621). In words: cell-based or functional assay. The source holds these as a separate data set.
Assay [13] has as its target T1, SARS-COV-2 Wuhan (WT) RBD. This is another data set of the same source.
Assay [14] deals with T8, SARS-COV-2 spike, Omicron variant (BA.1) (SARS-COV-2, UniProt P0DTC2 14-1273). In words: cell-based or functional assay.
Assay [15] has as its target T2, SARS-COV-2 Delta RBD. Put plainly: ELISA titration (A450 against Nb-hFc ug/mL) on SARS-CoV-2 Delta RBD. (In general: ELISA stands for enzyme-linked immunosorbent assay.)
The target in assay [16] is T1, SARS-COV-2 Wuhan (WT) RBD. The source holds these as a separate data set.
The target of assay [17] is T8, SARS-COV-2 spike, Omicron variant (BA.1). Put plainly: cell-based or functional assay. The source holds these as a separate data set.

B1: KP1C9 Nb-huFc (Fc fusion)
chain: EVQLQASGGGFVQPGGSLRLSCAASGRTFDAYSMGWFRQAPGKEREFVSAISSWSDDWTAYADSVKGRFTISRDNSKNTVYLQMNSLRAEDTATYYCALQNTKEDRLYWGQGTQVTVSS
For B1, the Kd in [1] is 0.119 nM; in [2], 25.5 nM. Also, the “EC50, neutralization of spike pseudotyped virus” value (from here on “EC50, neutralization”) was found to be 203 nM in assay [3]; 80.2 nM in assay [4]; 1.22 nM in [5]; 0.13 nM in assay [6]; 2.02 nM in [7].

B2: AP1C3 Nb-huFc (Fc fusion)
chain: EVQLQASGGGFVQPGGSLRLSCAASGRTYRGYSMGWFRQAPGKEREFVSAISSWSDDWTAYADSVKGRFTISRDNSKNTVYLQMNSLRAEDTATYYCAWQYIDEIQYYWGQGTQVTVSS
As to B2, the Kd in assay [1] stood at 0.133 nM; in [2] it was 33.3 nM. For the same molecule, the “EC50, neutralization” value was found to be 338 nM in assay [8]; 1.07 nM in [9]; 191 nM in [10]; 0.02 nM in [11]; 0.83 nM in assay [12].

B3: BP2A6 Nb-huFc (Fc fusion)
chain: EVQLQASGGGFVQPGGSLRLSCAASGQTFSHYIMGWFRQAPGKEREFVSAISAGQGHATYYADSVKGRFTISRDNSKNTVYLQMNSLRAEDTATYYCAKYQDTIAPLYWGQGTQVTVSS
B3: the figures for the Kd in [1] and in assay [13] were 0.0766 nM and 149 nM, respectively. Further, the “EC50, neutralization” value in [8] stood at 0.34 nM; in assay [9] it was 0.63 nM; in assay [10], 875 nM; in assay [11], 883 nM; in [12] it was 2.53 nM; in assay [14] it was 43.3 nM. In assay [15], the binding result is “no binding (tested: 10 ug/mL)”.

B4: BP1A10 Nb-huFc (Fc fusion)
chain: EVQLQASGGGFVQPGGSLRLSCAASGQPSDRYIMGWFRQAPGKEREFVSAISQGAANKTAYADSVKGRFTISRDNSKNTVYLQMNSLRAEDTATYYCATHFNWQNYSYWGQGTQVTVSS
For B4, in [1], the Kd came out at 0.548 nM. In addition, the “EC50, neutralization” value in assay [8] stood at 4.32 nM; in [9], 3.95 nM; in assay [12] it was 26.1 nM.

B5: DP4F2 Nb-huFc (Fc fusion)
chain: EVQLQASGGGFVQPGGSLRLSCAASGTTYSERVMGWFRQAPGKEREFVSAISSGQSDQTYYYADSVKGRFTISRDNSKNTVYLQMNSLRAEDTATYYCAPFAGDANLPREWYWGQGTQVTVSSA
Consider B5, for which the Kd in assay [1] was 9.51 nM; in assay [2], 1.91 nM. Further, the “EC50, neutralization” value came to 26.8 nM in [5] and 25.1 nM in assay [7].

B6: KP2C6 Nb-huFc (Fc fusion)
chain: EVQLQASGGGFVQPGGSLRLSCAASGRTFTSFHMGWFRQAPGKEREFVSAISSGDDGTQYYADSVKGRFTISRDNSKNTVYLQMNSLRAEDTATYYCAAYTTTTVPQYWGQGTQVTVSS
With B6, the Kd amounted to 4.46 nM in assay [1] and 62.6 nM in assay [2]. The “EC50, neutralization” value in assay [3] worked out at 411 nM; in assay [4], 408 nM; in assay [5], 18.3 nM; in [6], 612 nM; in assay [7], 305 nM.

B7: AP1D4 Nb-huFc (Fc fusion)
chain: EVQLQASGGGFVQPGGSLRLSCAASGHTFDAHRMGWFRQAPGKEREFVSAISSWGQSSTYYADSVKGRFTISRDNSKNTVYLQMNSLRAEDTATYYCAQTDEGNQYVYWGQGTQVTVSS
For B7, in assay [1], binding was characterised by a dissociation constant (Kd) of 1.09 nM. Further, the “EC50, neutralization” value in assay [8] came to 627 nM; in [9], 13.5 nM; in [10], 758 nM; in assay [11], 490 nM; in assay [12], 1.92 nM.

B8: BP2H9 Nb-huFc (Fc fusion)
chain: EVQLQASGGGFVQPGGSLRLSCAASGQTFTHVPMGWFRQAPGKEREFVSAISDTSGFETYYADSVKGRFTISRDNSKNTVYLQMNSLRAEDTATYYCAWAYDQFNWNYWGQGTQVTVSS
Regarding B8, the “EC50, neutralization” value turned out to be 0.21 nM in assay [3], 0.26 nM in assay [4] and 922 nM in assay [7].

B9: KP1B5 Nb-huFc (Fc fusion)
chain: EVQLQASGGGFVQPGGSLRLSCAASGFTFDWSAMGWFRQAPGKEREFVSAISSSTSESTTYADSVKGRFTISRDNSKNTVYLQMNSLRAEDTATYYCATYYGGKTVEQDFYWGQGTQVTVSS
As to B9, the “EC50, neutralization” value in assay [3] amounted to 482 nM; in assay [4] it was 214 nM; in [5], 324 nM; in [6], 472 nM; in assay [7], 367 nM.

B10: AP1A5 Nb-huFc (Fc fusion)
chain: EVQLQASGGGFVQPGGSLRLSCAASGSTASHYTMGWFRQAPGKEREFVSAISSGRDHAKQYADSVKGRFTISRDNSKNTVYLQMNSLRAEDTATYYCAYEEINATQKDTLYWGQGTQVTVSS
For the molecule B10, binding in [1] was characterised by a dissociation constant (Kd) of 1.28 nM. In addition, the “EC50, neutralization” value in [8] was determined as 198 nM; in assay [9], 533 nM; in assay [10], 73.3 nM; in assay [11] it was 79.1 nM; in assay [12], 7.18 nM. In addition, the binding result in [15] was “no binding (tested: 10 ug/mL)”.

B11: BP1B1 Nb-huFc (Fc fusion)
chain: EVQLQASGGGFVQPGGSLRLSCAASGRTFSGYIMGWFRQAPGKEREFVSAISQGDSYASYYADSVKGRFTISRDNSKNTVYLQMNSLRAEDTATYYCALYDINTVPYYWGQGTQVTVSS
Take B11: the Kd in assay [1] is 0.266 nM; in assay [16], 371 nM. For the same molecule, the “EC50, neutralization” value in assay [3] amounted to 3.5 nM; in [4] it was 3.68 nM; in assay [7], 6.97 nM; in [17] it was 403 nM. In addition, in [15], the binding result is “no binding (tested: 10 ug/mL)”.

B12: BP2A3 Nb-huFc (Fc fusion)
chain: EVQLQASGGGFVQPGGSLRLSCAASGRTFSAYSMGWFRQAPGKEREFVSAISAGDGAASYYADSVKGRFTISRDNSKNTVYLQMNSLRAEDTATYYCAHYYTTSATLDYAYWGQGTQVTVSS
B12 displayed a Kd in assay [1] of 0.315 nM. The results for the “EC50, neutralization” value in assay [3], in assay [4] and in assay [7] were 4.44 nM, 3.73 nM and 466 nM, respectively. In assay [15], the binding result was “no binding (tested: 10 ug/mL)”.

B13: AP1B6 Nb-huFc (Fc fusion)
chain: EVQLQASGGGFVQPGGSLRLSCAASGSAFQIYAMGWFRQAPGKEREFVSAISSTDSETDHYADSVKGRFTISRDNSKNTVYLQMNSLRAEDTATYYCAVNGFDYAHSKAGPQVYWGQGTQVTVSS
As for B13, in assay [1], the Kd amounted to 0.585 nM. Also, the “EC50, neutralization” value in [8] is 0.12 nM; in [9], 0.26 nM; in [10], 586 nM; in [11], 414 nM; in assay [12], 1.54 nM. For the same molecule, in [15], the binding result is recorded as “no binding (tested: 10 ug/mL)”.

A word on the Kd: it is the concentration at which binding is half-saturated. High values mean lower affinity, low ones higher affinity.
